Consider one substance from patent US20020127657A1.

This test has as its target GST-fusion of the truncated CD2 tail (CD2221-282) (human) (UniProt P06729). The test is described as follows: NMR titration, estimate from line broadening in fast exchange.

In general, koff refers to a measure of how fast the partners let go of each other.

A value given as a limit tells only on which side of the number the result lay.

Sequence of GST-fusion of the truncated CD2 tail (CD2221-282) (human) (P06729 245-306): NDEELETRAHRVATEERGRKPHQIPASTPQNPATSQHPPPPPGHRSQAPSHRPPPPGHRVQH

For “purified binding domain of CD2BP2 comprising amino acids 256-341 (His-tagged, NMR sample)”, the koff was above 1000 s⁻¹.
